For 2 molecules, Kd results are on record in patent US20140227251A1 (published 2014).

In this assay the target is Human TNF-α (R&D Systems) (human, UniProt P01375 77-233, labeled with Alexa Fluor 647 in the FACS assays). Put plainly: Biacore. (Surface plasmon resonance follows binding to a sensor surface in real time, without labels.)

Where a chain is given by its changes, count along the chain named. Numbers in names are those of the source.

What is called Kd is the constant that tells how readily two partners part at equilibrium. Read a low Kd as higher affinity.

Sequence of Human TNF-α (R&D Systems) (P01375 77-233): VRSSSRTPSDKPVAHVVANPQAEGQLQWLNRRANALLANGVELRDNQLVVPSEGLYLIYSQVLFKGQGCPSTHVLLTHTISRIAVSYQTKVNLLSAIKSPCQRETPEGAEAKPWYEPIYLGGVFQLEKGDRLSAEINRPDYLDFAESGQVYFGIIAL

B1: D2E7 combination variant Y32K/SS-R30I (antibody, V domains shown)
VH: not shown
VL: DIQMTQSPSSLSASVGDRVTITCRASQSIINYLSWYQQKPGKAPKLLIYAASTLQSGVPSRFSGSGSGTDFTLTISSLQPEDVATYYCQRYNRAPYTFGQGTKVEIK
In turn, B1 showed a Kd of 0.149 nM. This counts as sub-nanomolar.

B2: D2E7 combination variant Y32K/SS-R30T (antibody, V domains shown)
VH: not shown
VL: B1 VL with I30T
The molecule B2 displayed a Kd of 0.13 nM.
